Experiment [1] concerns LPS-induced release of endogenous TNFα from human THP-1 macrophage cells. Nature of the experiment: ELISA-based TNFα release assay with purified antibody (Example 11). The note with it: Homo sapiens; positive control at 10 μM final; THP-1 cells; LPS 50 ng/ml, 2 hours. Format: cell-based. As to the method: In the following study, ELISA-based TNFα release assays were performed to verify the inhibitory effects of the purified antibody 4H8-E3 of the invention on LPS-induced release of endogenous TNFα from human THP-1 macrophage cells.
In brief, on day 1, Nunc black MaxiSorp® 96-well plates (Thermo Fisher Scientific, USA) were coated overnight with 100 μl per well of mouse anti-human TNFα capture antibody (provided as part of the DuoSet ELISA kit) at 4 μg/ml TBS at 4° C. On day 2, the capture antibody solution was removed and MaxiSorp® plates were blocked with 300 μl per well of TBS, 1% BSA at room temperature for 3 hours. […] Using an infinite M1000 PRO (Tecan Group, Switzerland) microplate reader, the fluorescence of each well was collected at an excitation wavelength of 435 nm and an emission wavelength of 555 nm.
On the technique in general: An ELISA detects its analyte on a solid surface through an enzyme-linked reagent.

Experiment [2] has as its target T1, human iRhom2 (inactive rhomboid protein 2, isoform 1, NP_078875.4) (human, UniProt Q6PJF5 1-856).
T1 sequence: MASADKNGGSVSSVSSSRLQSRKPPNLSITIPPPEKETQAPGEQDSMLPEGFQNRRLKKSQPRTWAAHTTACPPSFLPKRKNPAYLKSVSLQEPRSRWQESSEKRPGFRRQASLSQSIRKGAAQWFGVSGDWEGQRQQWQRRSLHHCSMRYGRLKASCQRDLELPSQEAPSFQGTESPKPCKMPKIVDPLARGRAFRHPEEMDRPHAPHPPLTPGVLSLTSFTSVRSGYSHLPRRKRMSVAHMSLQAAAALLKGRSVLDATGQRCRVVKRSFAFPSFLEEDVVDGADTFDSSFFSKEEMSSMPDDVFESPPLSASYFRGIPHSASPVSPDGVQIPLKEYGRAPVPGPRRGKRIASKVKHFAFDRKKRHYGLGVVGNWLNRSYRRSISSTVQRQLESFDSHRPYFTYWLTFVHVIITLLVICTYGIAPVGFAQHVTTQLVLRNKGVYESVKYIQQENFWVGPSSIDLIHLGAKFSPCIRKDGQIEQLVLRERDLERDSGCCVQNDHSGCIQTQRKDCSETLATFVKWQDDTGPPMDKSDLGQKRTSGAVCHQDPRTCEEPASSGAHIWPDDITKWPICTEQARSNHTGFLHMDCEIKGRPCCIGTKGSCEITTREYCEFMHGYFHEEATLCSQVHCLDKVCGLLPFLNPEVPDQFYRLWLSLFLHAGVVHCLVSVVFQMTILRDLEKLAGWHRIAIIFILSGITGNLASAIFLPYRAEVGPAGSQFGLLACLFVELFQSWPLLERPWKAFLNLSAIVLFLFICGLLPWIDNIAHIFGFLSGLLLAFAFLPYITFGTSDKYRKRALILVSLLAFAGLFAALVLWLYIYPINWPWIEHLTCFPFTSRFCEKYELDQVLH
The experiment can be described thus: cell-based or functional assay.

Experiment [3] deals with T2, peptide 8 (human iRhom2 C-terminus, AA824-839), biotinylated (human).
T2 construct: also called immunization peptide 8
T2 peptide: YIYPINWPWIEHLT[Abu]FC([maleimide-PEG11′-Biotin])
The experiment can be described thus: peptide binding ELISA, biotinylated peptide coated.

The target in experiment [4] is T3, peptide 1b (human iRhom1 juxtamembrane domain of TMD1, AA433-449), biotinylated (human).
T3 peptide: SQHETVDSVLRNRGVYEC([maleimide-PEG(11)-Biotin])
Nature of the experiment: peptide binding ELISA, biotinylated peptide coated.

Experiment [5] deals with T4, peptide 9 (human iRhom2 C-terminus, AA819-839), biotinylated (human, X (position 20) = aminobutyrate in place of the internal cysteine; biotin-PEG(11)-maleimide on the added C-terminal cysteine).
T4 construct: also called immunization peptide 9
T4 peptide: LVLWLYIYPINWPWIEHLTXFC
The experiment can be described thus: peptide binding ELISA, biotinylated peptide coated.

Experiment [6] deals with T5, peptide 3b (human iRhom1 juxtamembrane domain of TMD1, AA433-461), biotinylated (human, biotin-PEG(11)-maleimide on the added C-terminal cysteine).
T5 peptide: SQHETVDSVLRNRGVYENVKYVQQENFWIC
The experiment can be described thus: peptide binding ELISA, biotinylated peptide coated.

In experiment [7] the target is T6, peptide 11 (human iRhom2 C-terminus, AA819-856), biotinylated (human, oxidized to the cyclic disulfide; biotin-PEG(11)-maleimide on the added C-terminal cysteine).
T6 construct: also called immunization peptide 11
T6 peptide: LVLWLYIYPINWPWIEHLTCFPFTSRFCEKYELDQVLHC
Nature of the experiment: peptide binding ELISA, biotinylated peptide coated.

For experiment [8], the target named is T7, peptide 7 (human iRhom2 loop 1, AA578-600), biotinylated (human, X (position 16) = aminobutyrate in place of the internal cysteine; biotin-PEG(11)-maleimide on the natural terminal cysteine).
T7 construct: also called immunization peptide 7
T7 peptide: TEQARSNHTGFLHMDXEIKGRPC
Nature of the experiment: peptide binding ELISA, biotinylated peptide coated.

Experiment [9] has as its target T8, peptide 2b (human iRhom1 juxtamembrane domain of TMD1, AA428-449), biotinylated (human, biotin-PEG(11)-maleimide on the added C-terminal cysteine).
T8 peptide: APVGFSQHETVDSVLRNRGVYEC
The experiment can be described thus: peptide binding ELISA, biotinylated peptide coated.

Experiment [10] deals with T9, peptide 6 (human iRhom2 loop 1, AA508-548), biotinylated (human, not fully specified; X (position 9) = aminobutyrate in place of the internal cysteine; biotin-PEG(11)-maleimide on the natural terminal cysteine).
T9 construct: also called immunization peptide 6
T9 peptide: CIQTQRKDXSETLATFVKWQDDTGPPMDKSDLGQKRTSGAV
Nature of the experiment: peptide binding ELISA, biotinylated peptide coated.

Experiment [11] has as its target T10, peptide 4b (human iRhom1 juxtamembrane domain of TMD1, AA428-461), biotinylated (human, biotin-PEG(11)-maleimide on the added C-terminal cysteine).
T10 peptide: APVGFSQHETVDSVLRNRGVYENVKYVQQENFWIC
Nature of the experiment: peptide binding ELISA, biotinylated peptide coated.

The target in experiment [12] is T11, peptide 10 (human iRhom2 C-terminus, AA824-856), biotinylated (human, oxidized to the cyclic disulfide; biotin-PEG(11)-maleimide on the added C-terminal cysteine).
T11 construct: also called immunization peptide 10
T11 peptide: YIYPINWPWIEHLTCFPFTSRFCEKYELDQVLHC
The experiment can be described thus: peptide binding ELISA, biotinylated peptide coated.

In experiment [13] the target is T12, peptide 5 (human iRhom2 loop 1, AA474-498), biotinylated (human, X (position 4) = aminobutyrate in place of the internal cysteine; biotin-PEG(11)-maleimide on the added N-terminal cysteine).
T12 construct: also called immunization peptide 5
T12 peptide: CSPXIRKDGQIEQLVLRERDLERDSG
Nature of the experiment: peptide binding ELISA, biotinylated peptide coated.

Primed or numbered codes have the meaning given here. Where no end group is shown, it is not given here. Side-chain parts run from the residue outwards. [ ]: non-standard residue; d: D form. The star is where a group is joined. PEG(11) = undeca(ethylene glycol) spacer (11 ethylene glycol units) between biotin and maleimide; Biotin = O=C1N[C@H]2[C@H](CS[C@H]2CCCCC(=O)*)N1; PEG11′ = not defined here; Abu = CC[C@H](N)C(=O)O

For the molecule `CNC(=O)[C@H](Cc1ccccc1)NC(=O)[C@H](CC(C)C)[C@H](CSc1cccs1)C(=O)NO` [Batimastat, reference compound], 10 µM produced 92.5% inhibition in experiment [1].

B1: antibody 4H8-E3 of the invention (antibody, V domains shown)
VH: EVQLQQSGPELVKPGASVKISCKASGYTFTDYYMNWVKQSHGKSLEWIGDINPNNGGTSYNQKFKGKATLTVDKSSNTAYMEFRSLTSEDSAVYYCARRGYYGVDYWGQGTTLTVSS
VL: NIVMTQSPKSMSMSVGERVTLNCKASENVGTYVSWYQQKPEQSPKLLIFGASNRYTGVPDRFIGSGFATDFTLTISSVQAEDLADYHCGQSYSYPYTFGGGTKLEIK
notes: Mouse monoclonal antibody purified from the supernatant of hybridoma sub-clone 4H8-E3; also called anti JMD1 antibody 4H8-E3; purified antibody 4H8-E3
For the molecule B1, the “IC50 on LPS-induced release of endogenous TNFα from THP-1 cells” value in experiment [2] was determined as 6.48 nM. The binding result in experiment [3], in [4], in experiment [5], in experiment [6], in [7] and in experiment [8] was “no binding (tested: 3 µg/ml)” throughout. In addition, the binding result in experiment [9], in [10], in experiment [11], in [12] and in experiment [13] was “no binding (tested: 3 µg/ml)” each time.

Source of the values: patent US20220204610A1, “PROTEIN BINDERS FOR IRHOM2” (NEW YORK SOCIETY FOR THE RELIEF OF THE RUPTURED AND …, priority 2019, published 2022).
